The values below come from paper doi:10.1101/2023.12.09.570908 (bioRxiv, 2023).

The target of experiment [1] is T1, WDR5^22-334 (human, UniProt P61964 22-334). Kind of experiment: ITC. A general note: ITC needs no label: the signal is the heat of the interaction.
The target in experiment [2] is T1, WDR5^22-334. Description: ITC. The source holds these as a separate data set.

A word on the Kd: it is the equilibrium constant for the complex coming apart. High values mean lower affinity, low ones higher affinity. For SSRRSSHYPAAVQSQAAAERGASATAKSRAISI [PTENα-NTE^116-148 peptide], the “Kd against the 1:1 mixture of WDR5^22-334 and H3^1-15” value in experiment [1] is 32 ± 3 µM. In experiment [2], this molecule returned a Kd of 3.8 µM.
